Data taken from patent US20160083480A1 (Zymeworks, published 2016).
Each block holds one binder with its values, some of them ahead of it.

Legend:
[1] = target: T1, HER3 on human tumour cells (human, UniProt P21860 20-1342); test: flow cytometry on MALME-3M cells, fluorochrome-labelled secondary antibody
T1 construct: whole, on cells; also called ErbB3
Method: (§1) The FACS analysis was carried out as described below.
(§2) Cells were washed with PBS and resuspended in DMEM containing 10% FBS at 1×10⁵ cells/100 μl. 100 μl cell suspension was added into each microcentrifuge tube, followed by 10 μl/tube of the antibody variants. The tubes were incubated for 2 hr 4° C. on a rotator. The microcentrifuge tubes were centrifuged for 2 min 2000 RPM at room temperature and the cell pellets washed with 500 μl media. Each cell pellet was resuspended 100 μl of fluorochrome-labelled secondary antibody diluted in media to 2 μg/sample. The samples were then incubated for 1 hr at 4° C. on a rotator. After incubation, the cells were centrifuged for 2 min at 2000 RPM and washed in media. The cells were resuspended in 500 μl media, filtered in tube containing 5 μl propidium iodide (PI) and analyzed on a BD™ LSRII flow cytometer according to the manufacturer's instructions.

[2] = target: T2, HER2 and HER3 co-expressed on human tumour cells (human, UniProt P04626 23-1255; P21860 20-1342); test: cell-based or functional assay
[3] = target: T2, HER2 and HER3 co-expressed on human …; test: flow cytometry on MALME-3M cells, fluorochrome-labelled secondary antibody
Method: as §1, §2

binding result [1]: binds
B1: v877 (monospecific bivalent antibody with two identical HER3-binding scFvs connected to a homodimeric Fc) (antibody, V domains shown)
VH: QVQLQESGGGLVKPGGSLRLSCAASGFTFSSYWMSWVRQAPGKGLEWVANINRDGSASYYVDSVKGRFTISRDDAKNSLYLQMNSLRAEDTAVYYCARDRGVGYFDLWGRGTLVTVSS
VL: QSALTQPASVSGSPGQSITISCTGTSSDVGGYNFVSWYQQHPGKAPKLMIYDVSDRPSGVSDRFSGSKSGNTASLIISGLQADDEADYYCSSYGSSSTHVIFGGGTKVTVL
notes: also called variant 877; monospecific bivalent control for HER3

EC50 (read off the curve) [3]: ~10 nM
B2: Variant 880 (bi-specific anti-HER2-HER3 antibody; B1D2 scFv on chain A, H3 scFv on chain B, heterodimeric Fc) (bispecific antibody)
scFv-Fc A: QVQLVQSGAEVKKPGESLKISCKGSGYSFTSYWIAWVRQMPGKGLEYMGLIYPGDSDTKYSPSFQGQVTISVDKSVSTAYLQWSSLKPSDSAVYFCARHDVGYCTDRTCAKWPEWLGVWGQGTLVTVSSGGGGSSGGGSGGGGSQSVLTQPPSVSAAPGQKVTISCSGSSSNIGNNYVSWYQQLPGTAPKLLIYDHTNRPAGVPDRFSGSKSGTSASLAISGFRSEDEADYYCASWDYTLSGWVFGGGTKLTVLGAAEPKSSDKTHTCPPCPAPELLGGPSVFLFPPKPKDTLMISRTPEVTCVVVDVSHEDPEVKFNWYVDGVEVHNAKTKPREEQYNSTYRVVSVLTVLHQDWLNGKEYKCKVSNKALPAPIEKTISKAKGQPREPQVYTYPPSRDELTKNQVSLTCLVKGFYPSDIAVEWESNGQPENNYKTTPPVLDSDGSFALVSKLTVDKSRWQQGNVFSCSVMHEALHNHYTQKSLSLSPGK
scFv-Fc B: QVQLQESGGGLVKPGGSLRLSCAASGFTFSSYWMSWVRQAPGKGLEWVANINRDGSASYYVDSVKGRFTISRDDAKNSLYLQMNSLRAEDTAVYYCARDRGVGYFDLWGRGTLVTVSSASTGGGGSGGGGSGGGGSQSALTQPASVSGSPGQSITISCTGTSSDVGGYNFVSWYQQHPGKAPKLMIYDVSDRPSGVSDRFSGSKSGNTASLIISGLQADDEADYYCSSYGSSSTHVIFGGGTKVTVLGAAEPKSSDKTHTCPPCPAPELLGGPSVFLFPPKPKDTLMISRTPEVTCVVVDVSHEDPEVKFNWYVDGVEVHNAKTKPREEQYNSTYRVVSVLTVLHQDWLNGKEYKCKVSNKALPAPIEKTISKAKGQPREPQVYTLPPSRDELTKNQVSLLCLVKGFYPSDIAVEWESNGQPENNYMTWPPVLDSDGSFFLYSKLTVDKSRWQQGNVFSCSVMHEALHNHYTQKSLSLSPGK
notes: also called v880; bsAb variant 880
BT-474 cell viability relative to untreated cells (Sulforhodamine B, 6 days, no heregulin) [2]: 36 % increase
